US5831003A, “Peptides which bind to prothrombin and thrombin” (Bayer Corporation, priority 1996, dated 1998)
Several values for one entry are separate records, joined by “and”; a condition that tells them apart may be missing. Identical values can stand only once. Ends that are not written are not given here.

Key:
thrombin = target: T1, thrombin (Homo sapiens, UniProt P00734); experiment: Purification of α-thrombin from activated PTC eluate on QLWGSH-A-Totda-Toyopearl; format: binding; settings: SDS-PAGE and western blot
T1 construct: from tissue
Experimental: Human pooled plasma was processed to PTC eluate by standard manufacturing techniques. In brief, DEAE-Sephadex resin was added to post cryoprecipitate eluant and loosely bound protein was washed away with a low salt buffer. Higher concentrations of NaCl eluted the fraction called PTC eluate which contains prothrombin and the vitamin K-dependent coagulation protease zymogens (factors VII, IX, X, protein C and protein S). A sample of PTC eluate was activated in the presence of 25% (w/w) sodium citrate for 4 days at room temperature. Approximately 1.0 ml of activated PTC eluate was injected onto the peptide resin QLWGSH-A-Totda-Toyopearl (FIG. 2 A). The column was washed with equilibration buffer (10 mM HEPES, pH 6.8, 1.0 mM EGTA and 0.1% v/v Tween-20) containing 1.0 M NaCl and then washed further with equilibration buffer containing 3.0 M NaCl. Acid treatment (2.5% acetic acid) was used to release protein from the peptide resin.

α-thrombin = target: T2, α-thrombin (Homo sapiens, UniProt P00734); experiment: Confirmatory binding assay in column chromatographic format, peptides synthesized on A-Totda-Toyopearl; settings: for Absorbance, 280 nm 2% Acetic Acid: integration of A280
T2 construct: α-Thrombin is the active form of the plasma serine protease zymogen, prothrombin; purchased Enzyme Research Labs (South Bend, Ind.)
Experimental: Confirmatory binding assays were performed in a column chromatographic format on a microbore HPLC using individual peptide sequences synthesized directly onto the Toyopearl 650 M Chelate resin which had been modified with Totda followed by an alanine residue (A-Totda-Toyopearl), at a final substitution density of 0.2 mmol/g resin. […] The endpoint was a dose-dependent increase in the acid eluate in the thrombin contactings, and quantification was by integration of the absorbance at 280 nm.

prothrombin = target: T3, prothrombin (Homo sapiens, UniProt P00734); experiment: Purification of prothrombin from PTC eluate on QLWGSH-A-Totda-Toyopearl; format: binding; settings: SDS-PAGE and western blot; released with 1 M NaCl
T3 construct: from tissue
Experimental: Human pooled plasma was processed to PTC eluate by standard manufacturing procedures as indicated in Example 1. Approximately 1.0 ml of PTC eluate was injected onto the peptide resin QLWGSH-A-Totda-Toyopearl (FIG. 2 B). The column was washed with equilibration buffer containing 1.0 M NaCl and then containing 3.0 M NaCl. Acid treatment (2.5% acetic acid) was used to release protein from peptide resin.

binding and enrichment of thrombin from activated PTC eluate (in words) (thrombin): bound and enriched thrombin | Absorbance, 280 nm 2% Acetic Acid (α-thrombin; 50 μg α-thrombin applied): 1.54 and 1.39 | Absorbance, 280 nm 2% Acetic Acid (α-thrombin; 100 μg α-thrombin applied): 3.23 and 2.09 | Absorbance, 280 nm 2% Acetic Acid (α-thrombin; 200 μg α-thrombin applied): 6.92 and 3.71 | dose dependence of thrombin in the acid eluant (in words) (α-thrombin; 50, 100 and 200 μg α-thrombin): dose dependent increase | binding of thrombin to peptide resin (in words) (α-thrombin; summary of Table 2): bound thrombin | binding of prothrombin from unactivated PTC eluate (in words) (prothrombin): prothrombin bound the peptide
Substance: QLWGSH (not fully specified (C-terminus))
